According to patent US7410949:
Primed or numbered codes have the meaning given here. [ ]: non-standard residue; d: D form. Pqa″ = not defined here

What was measured:
Y4R = assay: cell-based or functional assay
Y1R = assay: cell-based or functional assay
Chain of Y1R (P25929 whole entry): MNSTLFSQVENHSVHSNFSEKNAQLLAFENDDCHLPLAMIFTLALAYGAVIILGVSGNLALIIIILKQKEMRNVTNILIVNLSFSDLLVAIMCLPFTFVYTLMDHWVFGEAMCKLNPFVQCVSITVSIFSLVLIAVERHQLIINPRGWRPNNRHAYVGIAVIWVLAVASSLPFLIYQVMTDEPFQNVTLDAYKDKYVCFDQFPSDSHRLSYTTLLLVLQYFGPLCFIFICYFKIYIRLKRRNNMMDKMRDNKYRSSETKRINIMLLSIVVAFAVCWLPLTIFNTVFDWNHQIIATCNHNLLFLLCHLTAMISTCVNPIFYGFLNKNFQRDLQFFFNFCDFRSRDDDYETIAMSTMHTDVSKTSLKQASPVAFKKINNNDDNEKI

Binder | Y4R EC50(nM) FLIPR (Y4R) [nM] | Y1R EC50(nM) FLIPR (Y1R) [nM]
H-IK[Pqa″]AHWLNLVTRQRY-NH2 (reading uncertain; also: printed as H-Ile-Lys-Pqa-Ala-His-Trp-Leu-Asn-Leu-Val-Thr-Arg-Gln-Arg-Tyr-NH2) [H-Ile-Lys-Pqa-Ala-His-Trp-Leu-Asn-Leu-Val-Thr-Arg-Gln-Arg-Tyr-NH2] | > 5000 | 
H-IK[Pqa″]RHWLNLVTRQRY-NH2 (reading uncertain; also: printed as H-Ile-Lys-Pqa-Arg-His-Trp-Leu-Asn-Leu-Val-Thr-Arg-Gln-Arg-Tyr-NH2) [H-Ile-Lys-Pqa-Arg-His-Trp-Leu-Asn-Leu-Val-Thr-Arg-Gln-Arg-Tyr-NH2] | > 5000 | 
H-IK[Pqa″]RHALNLVTRQRY-NH2 (reading uncertain; also: printed as H-Ile-Lys-Pqa-Arg-His-Ala-Leu-Asn-Leu-Val-Thr-Arg-Gln-Arg-Tyr-NH2) [H-Ile-Lys-Pqa-Arg-His-Ala-Leu-Asn-Leu-Val-Thr-Arg-Gln-Arg-Tyr-NH2] | > 5000 | > 5000
H-IK[Pqa″]RHYANLVTRQRY-NH2 (reading uncertain; also: printed as H-Ile-Lys-Pqa-Arg-His-Tyr-Ala-Asn-Leu-Val-Thr-Arg-Gln-Arg-Tyr-NH2) [H-Ile-Lys-Pqa-Arg-His-Tyr-Ala-Asn-Leu-Val-Thr-Arg-Gln-Arg-Tyr-NH2] | > 5000 | > 5000
